According to the supplement of paper PMC9112550, “Optimization of the antimicrobial peptide Bac7 by deep mutational scanning” (BMC Biology, 2022):

Test system: Escherichia coli TOP10
Test: shrunken log2 fold change of peptide-encoding DNA abundance (4.5 h post-induction vs induction); higher = less antimicrobial activity (less host growth inhibition)
Conditions: time post-induction: 4.5 h; library: site-saturation at positions 5, 18, 19, 20
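Note: peptides expressed intracellularly from a pBAD plasmid library in pooled LB shake-flask culture, induced with 0.3% L-arabinose, DNA abundance read by NGS, three biological replicates, DESeq2 with apeglm shrinkage.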

Sequence	shrunken log2 fold change
RRIRKRPPRLPRPRPRPLKKPRP	0.0649
RRIRMRPPRLPRPRPRPIKTPRP	-0.0802
RRIRSRPPRLPRPRPRPNSAPRP	-0.35
RRIRVRPPRLPRPRPRPKGHPRP	-0.0413
RRIRFRPPRLPRPRPRPNFGPRP	0.0849
RRIRRRPPRLPRPRPRPENGPRP	0.401
RRIRSRPPRLPRPRPRPLTEPRP	0.21
RRIRWRPPRLPRPRPRPKPIPRP	0.477
RRIRTRPPRLPRPRPRPRYYPRP	-0.112
RRIRIRPPRLPRPRPRPFFSPRP	-0.799
RRIRTRPPRLPRPRPRPINSPRP	-0.875
RRIRRRPPRLPRPRPRPVDEPRP	0.0882
RRIRSRPPRLPRPRPRPIQGPRP	-0.127
RRIRPRPPRLPRPRPRPHPPPRP	0.397
RRIRWRPPRLPRPRPRPSPQPRP	0.266
RRIRCRPPRLPRPRPRPFNGPRP	-0.148
RRIRRRPPRLPRPRPRPHQWPRP	0.144
RRIRVRPPRLPRPRPRPFLVPRP	-0.527
RRIRTRPPRLPRPRPRPEQLPRP	0.117
RRIRDRPPRLPRPRPRPQFDPRP	-0.0102
RRIRGRPPRLPRPRPRPQKIPRP	0.274
RRIRHRPPRLPRPRPRPCCRPRP	-0.276

Sequence	shrunken log2 fold change
RRIRYRPPRLPRPRPRPDTIPRP	-0.145
RRIRCRPPRLPRPRPRPATLPRP	-0.154
RRIRDRPPRLPRPRPRPNHMPRP	-0.776
RRIRWRPPRLPRPRPRPHRHPRP	-0.131
RRIRQRPPRLPRPRPRPIWHPRP	-0.204
RRIRFRPPRLPRPRPRPPTNPRP	0.236
RRIRARPPRLPRPRPRPDRCPRP	0.285
RRIRWRPPRLPRPRPRPAEYPRP	0.101
RRIRCRPPRLPRPRPRPNHAPRP	-0.00846
RRIRPRPPRLPRPRPRPKIAPRP	-0.1
RRIRLRPPRLPRPRPRPDCRPRP	0.0593
RRIRRRPPRLPRPRPRPTEIPRP	0.299
RRIRSRPPRLPRPRPRPEPIPRP	0.312
RRIRIRPPRLPRPRPRPGAPPRP	0.416
RRIRCRPPRLPRPRPRPKRGPRP	0.27
RRIRNRPPRLPRPRPRPNYVPRP	-0.0488
RRIRFRPPRLPRPRPRPGIYPRP	-0.184
RRIRCRPPRLPRPRPRPPQMPRP	0.0913
RRIRRRPPRLPRPRPRPTDFPRP	-0.00455
RRIRWRPPRLPRPRPRPRCGPRP	0.672
RRIRYRPPRLPRPRPRPGNEPRP	-0.229
RRIRQRPPRLPRPRPRPEKEPRP	-0.0081

Sequence	shrunken log2 fold change
RRIRERPPRLPRPRPRPDEEPRP	-0.142
RRIRHRPPRLPRPRPRPLNLPRP	0.00301
RRIRYRPPRLPRPRPRPKMSPRP	-0.562
RRIRWRPPRLPRPRPRPEQDPRP	-0.0232
RRIRRRPPRLPRPRPRPIYEPRP	0.0785
RRIRARPPRLPRPRPRPDNNPRP	-0.154
RRIRFRPPRLPRPRPRPAIFPRP	-0.416
RRIRHRPPRLPRPRPRPSATPRP	-0.00655
RRIRDRPPRLPRPRPRPCACPRP	0.112
RRIRMRPPRLPRPRPRPRHTPRP	1.15
RRIRIRPPRLPRPRPRPIDCPRP	-0.145
RRIRYRPPRLPRPRPRPFTCPRP	-0.103
RRIRMRPPRLPRPRPRPLNKPRP	0.118
RRIRVRPPRLPRPRPRPWIMPRP	-0.0202
RRIRNRPPRLPRPRPRPCLRPRP	-0.0159
RRIRKRPPRLPRPRPRPEVDPRP	3.04
RRIRCRPPRLPRPRPRPSADPRP	0.0289
RRIRHRPPRLPRPRPRPFSRPRP	-0.0618
RRIRHRPPRLPRPRPRPKLKPRP	-0.0873
RRIRERPPRLPRPRPRPWHDPRP	-0.251
RRIRHRPPRLPRPRPRPGWEPRP	0.274
RRIRQRPPRLPRPRPRPYNVPRP	-0.0265

Sequence	shrunken log2 fold change
RRIRWRPPRLPRPRPRPQRSPRP	0.172
RRIRMRPPRLPRPRPRPEPPPRP	1.76
RRIRNRPPRLPRPRPRPRSMPRP	-0.365
RRIRGRPPRLPRPRPRPHAFPRP	0.372
RRIRSRPPRLPRPRPRPMMCPRP	0.0105
RRIRLRPPRLPRPRPRPYKVPRP	-0.756
RRIRDRPPRLPRPRPRPMVPPRP	0.0555
RRIRSRPPRLPRPRPRPGMLPRP	-0.0372
RRIRFRPPRLPRPRPRPASPPRP	0.164
RRIRPRPPRLPRPRPRPIYYPRP	-0.323
RRIRFRPPRLPRPRPRPMEVPRP	-0.00205
RRIRWRPPRLPRPRPRPRELPRP	0.642
RRIRDRPPRLPRPRPRPWCVPRP	0.083
RRIRFRPPRLPRPRPRPGLTPRP	-0.143
RRIRFRPPRLPRPRPRPYKNPRP	-0.957
RRIRYRPPRLPRPRPRPVWWPRP	0.113
RRIRHRPPRLPRPRPRPKTFPRP	-0.45
RRIRCRPPRLPRPRPRPVSAPRP	0.15
RRIRRRPPRLPRPRPRPVDTPRP	0.0438
RRIRCRPPRLPRPRPRPPKEPRP	0.203
RRIRHRPPRLPRPRPRPCQGPRP	-0.00822
RRIRPRPPRLPRPRPRPEFLPRP	-0.101

Sequence	shrunken log2 fold change
RRIRPRPPRLPRPRPRPPPKPRP	0.902
RRIRQRPPRLPRPRPRPWMRPRP	0.131
RRIRLRPPRLPRPRPRPLGPPRP	0.332
RRIRDRPPRLPRPRPRPEHTPRP	0.225
RRIRQRPPRLPRPRPRPSNQPRP	-0.359
RRIRTRPPRLPRPRPRPTTAPRP	0.0738
RRIRVRPPRLPRPRPRPEAMPRP	-0.0277
RRIRYRPPRLPRPRPRPHALPRP	-0.656
RRIRMRPPRLPRPRPRPLQSPRP	2.75
RRIRRRPPRLPRPRPRPMAVPRP	-0.165
RRIRFRPPRLPRPRPRPKFTPRP	0.012
RRIRWRPPRLPRPRPRPRVQPRP	0.927
RRIRVRPPRLPRPRPRPDAWPRP	0.0757
RRIRHRPPRLPRPRPRPYVTPRP	-0.182
RRIRCRPPRLPRPRPRPECEPRP	0.757
RRIRVRPPRLPRPRPRPIMYPRP	-0.514
RRIRFRPPRLPRPRPRPILKPRP	-0.43
RRIRIRPPRLPRPRPRPYWCPRP	0.0219
RRIRKRPPRLPRPRPRPLAPPRP	0.65
RRIRCRPPRLPRPRPRPCRRPRP	0.0819
RRIRARPPRLPRPRPRPYAKPRP	0.249
